Test results taken from patent US20110280858A1.

Biological target: Lucilia sericata larval excretions/secretions (ES), Batch B: proteinase activities within ES
Assay: cell-based or functional assay

**Q.** With “soybean trypsin inhibitor (STI) immobilized on cross-linked 4% beaded agarose (from UniProt P01070 25-205)” as the substance, how does the residual activity of STI-treated ES against H-Leu-AMC without further inhibitor (FIG. 10A), compared with untreated ES (percent of untreated ES) read?
**A.** 25.7

**Q.** What about the residual activity of STI-treated ES against H-Leu-AMC, percentage of untreated ES (percent of untreated ES) of the same substance?
**A.** 28.4

**Q.** What about the residual activity of STI-treated ES against Tosyl-Gly-Pro-Arg-AMC-HCl, percentage of untreated ES (percent of untreated ES) of the same substance?
**A.** 0.5

**Q.** What about the residual activity of STI-treated ES against Z-Phe-Arg-AMC-HCl, percentage of untreated ES (percent of untreated ES) of the same substance?
**A.** 1.8
